Legend:
[1] = test system: HEK-293 human embryonic kidney cancer cells expressing FAP (HEK-293-FAP cells) tumor; experiment: nanoSPECT/CT imaging biodistribution in tumor of HEK-293-FAP tumor-bearing mice; conditions: BALB/c nude mice, nanoSPECT/CT semi-quantification
Protocol: (§1) The HEK-293 human embryonic kidney cancer cells expressing FAP (HEK-293-FAP cells) are inoculated with 4×10^6 cells at the forward right flanks of BALB/c nude mice. […] These drugs are prepared to about 100 μL volume in normal saline. The nanoSPECT/CT imaging is performed at 1, 4, and 24 h after the intravenously administrated via tail vein.
(§2) The nanoSPECT/CT imaging is performed at 1, 4, and 24 h after administration to monitor the distribution of radiopharmaceuticals in the animal. The images are semi-quantification by using imaging analysis software. The SPECT count value of reference source is obtained by using imaging analysis software. […] The SPECT count value is obtained from region of image of each target organ, and obtained the activity/volume of each target organ by using the conversion formula.

[2] = nanoSPECT/CT imaging biodistribution in blood of heart of HEK-293-FAP tumor-bearing mice; conditions: BALB/c nude mice, nanoSPECT/CT semi-quantification
Protocol: as §1, §2

[3] = 1 h after intravenous administration via tail vein
[4] = 4 h after intravenous administration via tail vein
[5] = 24 h after intravenous administration via tail vein

| Compound | Tumor biodistribution value [1, 3] [% ID/mL] | Tumor biodistribution value [1, 4] [% ID/mL] | Tumor biodistribution value [1, 5] [% ID/mL] | Blood of heart biodistribution value [2, 3] [% ID/mL] | Blood of heart biodistribution value [2, 4] [% ID/mL] | Blood of heart biodistribution value [2, 5] [% ID/mL] |
| --- | --- | --- | --- | --- | --- | --- |
| CN(CCCN1CCN(C(=O)[C@H](COCCNC(=O)CCCc2ccc(I)cc2)NC(=O)[C@H](CCCCSC2CC(=O)N(CCC(=O)N[C@@H](CCCCN)C(=O)N[C@@H](CCCCN)C(=O)N[C@@H](CCCCN)C(=O)N[C@@H](CCCCN)C(=O)N[C@@H](CCCCN)C(=O)N[C@@H](CCCCN)C(=O)N[C@@H](CCCCN)C(=O)N[C@@H](CCCCN)C(=O)O)C2=O)NC(=O)CNC(=O)CN2CCN(CC(=O)O)CCN(CC(=O)O)CCN(CC(=O)O)CC2)CC1)c1ccc2nccc(C(=O)NCC(=O)N3CC(F)(F)C[C@H]3C#N)c2c1 (stereo partly drawn) [Lu-177-INER-FAPI-1.12, metal not drawn] | 4.71 | 5.08 | 4.21 | 16.19 | 13.33 | 5.50 |
| CN(CCCN1CCN(C(=O)[C@H](COCCNC(=O)CCCc2ccc(I)cc2)NC(=O)[C@H](CCCCSC2CC(=O)N(CCC(=O)N[C@@H](CCCCN)C(=O)N[C@@H](CCCCN)C(=O)N[C@@H](CCCCN)C(=O)N[C@@H](CCCCN)C(=O)N[C@@H](CCCCN)C(=O)N[C@@H](CCCCN)C(=O)N[C@@H](CCCCN)C(=O)N[C@@H](CCCCN)C(=O)N[C@@H](CCCCN)C(=O)N[C@@H](CCCCN)C(=O)N[C@@H](CCCCN)C(=O)N[C@@H](CCCCN)C(=O)O)C2=O)NC(=O)CNC(=O)CN2CCN(CC(=O)O)CCN(CC(=O)O)CCN(CC(=O)O)CC2)CC1)c1ccc2nccc(C(=O)NCC(=O)N3CC(F)(F)C[C@H]3C#N)c2c1 (stereo partly drawn) [Lu-177-INER-FAPI-1.13, metal not drawn] | 8.03 | 8.54 | 5.44 | 15.70 | 12.33 | 5.44 |
| CN(CCCN1CCN(C(=O)[C@H](COCCNC(=O)CCCc2ccc(I)cc2)NC(=O)[C@H](CCCCSC2CC(=O)N(CCC(=O)N[C@@H](CCCNC(=N)N)C(=O)N[C@@H](CCCNC(=N)N)C(=O)N[C@@H](CCCNC(=N)N)C(=O)N[C@@H](CCCNC(=N)N)C(=O)N[C@@H](CCCNC(=N)N)C(=O)N[C@@H](CCCNC(=N)N)C(=O)N[C@@H](CCCNC(=N)N)C(=O)N[C@@H](CCCNC(=N)N)C(=O)N[C@@H](CCCNC(=N)N)C(=O)N[C@@H](CCCNC(=N)N)C(=O)N[C@@H](CCCNC(=N)N)C(=O)N[C@@H](CCCNC(=N)N)C(=O)O)C2=O)NC(=O)CNC(=O)CN2CCN(CC(=O)O)CCN(CC(=O)O)CCN(CC(=O)O)CC2)CC1)c1ccc2nccc(C(=O)NCC(=O)N3CC(F)(F)C[C@H]3C#N)c2c1 (stereo partly drawn) [Lu-177-INER-FAPI-1.23, metal not drawn] | 6.58 | 5.96 | 3.23 | 10.54 | 8.89 | 3.49 |
